Values after ≈ are worked out from the molar mass of the structure shown. Read-outs that look alike come from different tables or passages of the source. Where a SMILES comes first, the peptide text is derived from it. The star is where a group is joined. X1 = CC[C@@]1(O)C(=O)OCc2c1cc1n(c2=O)Cc2c-1nc1ccccc1c2CCN(C1CCC1)*; X4 = CCCN(CCc1c2c(nc3ccccc13)-c1cc3c(c(=O)n1C2)COC(=O)[C@]3(O)CC)*; X3 = CC[C@@]1(O)C(=O)OCc2c1cc1n(c2=O)Cc2c-1nc1ccccc1c2CCN(C1CC1)*; Propanoyl(3-maleimido) = O=C1C=CC(=O)N1CCC(=O)*; PEG6 = NCCOCCOCCOCCOCCOCCOCCC(=O)O
Legend:
[1] = Tumor homogenate activation efficiency, ovarian cancer tissue (Examples 28, 37); assay type: in vitro ADME; conditions: pH 5.0, 37° C., 2 h; Table 5
Experimental: (§1) Buffer preparation: 50 mM PH buffer (MES), 250 mM NaCl, pH adjusted to 5.0 with 0.5 M of sodium hydroxide.
(§2) The polypeptide conjugate was prepared into a 1 mg/ml solution with pH 5.0 buffer, 100 μg of tumor tissue homogenate was added, (the tumor tissue homogenate was the homogenate of tumor tissues prepared with a Jingxin F6/10 handheld homogenizer), and the solution was placed at 37° C. for 2 h. The tumor tissue homogenate could effectively activate the polypeptide conjugate and release Belotecan, and the activation efficiencies of the drugs in tumor tissues were compared by high-performance liquid chromatography (HPLC) allowing determination of a decrease in the compounds and an increase in Belotecan:
(§3) Release percentage=peak area of Belotecan/total peak area of Belotecan and all other Belotecan-containing compounds
(§4) The polypeptide conjugate was prepared into a 1 mg/ml solution with pH 5.0 buffer, 100 μg of tumor tissue homogenate was added, (the tumor tissue homogenate was the homogenate of tumor tissues prepared with a Jingxin F6/10 handheld homogenizer), and the solution was placed at 37° C. for 2 h. The tumor tissue homogenate could effectively activate the polypeptide conjugate and release Belotecan, and the activation efficiencies of the drugs in tumor tissues were compared by HPLC allowing determination of a decrease in the compounds and an increase in Belotecan: […]

[2] = MTD determination in mice (Examples 27, 36, 44); assay type: in vivo; conditions: female, mouse, in vivo; mice, monitored for 14 d; Table 4
Excerpt: Test animals: 6-8 weeks old mice, all female; mice were grouped randomly, with six mice in each group, administered with drugs at different concentration gradients separately and monitored for 14 d. A mouse was euthanized at a loss of 20% of its initial weight and deemed to have died of poisoning.

[3] = test system: A2780 ovarian cancer tumor model; experiment: Efficacy in animal model of A2780 ovarian cancer, 30 mg/kg once a week for two weeks (Example 41); assay type: in vivo, BALB/c mice
Experimental: Test objective: To further compare the antitumor efficacy of different polypeptide Linkers in an animal tumor model of A2780 ovarian cancer.
(§5) Test drug: Polypeptide conjugate and normal saline control group.
8×10^6 corresponding cells were injected into right axillas of nude mice subcutaneously. […] The negative control group was administered normal saline. Administration was performed once a week for two weeks.

[4] = test system: sarcoma SJSA-1 tumor model; experiment: Efficacy in animal model of sarcoma SJSA-1, 30 mg/kg once a week for two weeks (Example 40); assay type: in vivo, BALB/c mice; conditions: 30 mg/kg once a week for two weeks
Experimental: Test objective: To further compare the antitumor efficacy of different polypeptide Linkers in an animal tumor model of sarcoma SJSA-1.
as §5
The control group was administered normal saline. Administration was performed once a week for two weeks.

[5] = test system: sarcoma SJSA-1 tumor model; conditions: Table 2
Outline: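 Female BALB/c nude mice (6-8 weeks) bearing subcutaneous right-chest SJSA-1 xenografts from 2×10^7 cells were randomized, three per group, once tumors reached at least 100 mm^3. Treatment given once a week for three weeks starting day 1; saline controls.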

[6] = Tumor homogenate activation efficiency, breast cancer tissue (Examples 28, 37); assay type: in vitro ADME; conditions: pH 5.0, 37° C., 2 h; Table 5
Experimental: as §1, §2, §3, §4

[7] = Homogenate activation efficiency, heart tissue (Examples 28, 37); assay type: in vitro ADME; conditions: pH 5.0, 37° C., 2 h; Table 5
A2780 (ovarian cancer) = experiment: cells; assay type: cell-based; conditions: CCK8, 48 h; Table 1
Outline: (§6)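 Following a 48 h drug exposure of 5,000 seeded cells per well, wells received CCK8 and, after about 2 h incubation, optical density at 450 nm was recorded. IC50 values were computed from survival rates versus solvent-only wells.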

[8] = test system: A549 (non-small cell lung cancer); experiment: cells; assay type: cell-based; conditions: CCK8, 48 h; Table 1
Outline: as §6

[9] = test system: SKBR3 (breast cancer tissue); experiment: cells; assay type: cell-based; conditions: CCK8, 48 h; Table 1
Outline: as §6

SJSA-1 (sarcoma tissue) = experiment: cells; assay type: cell-based; conditions: CCK8, 48 h; Table 1
Outline: as §6

[10] = Tumor homogenate activation efficiency, non-small cell lung cancer tissue (Examples 28, 37); assay type: in vitro ADME; conditions: pH 5.0, 37° C., 2 h; Table 5
Experimental: as §1, §2, §3, §4

[11] = Tumor homogenate activation efficiency, small cell lung cancer tissue (Example 28); assay type: in vitro ADME; conditions: pH 5.0, 37° C., 2 h; Table 5
Experimental: as §1, §2, §3

[12] = test system: colo320 colorectal cancer tumor model
Outline: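 Dosing was once a week for four weeks, with saline as control, in randomized groups of three mice. Groups were formed after subcutaneous colo320 xenografts (7.5×10^6 cells, right chest) grew to ≥120 mm^3 in female 6–8-week-old BALB/c nude mice.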

[13] = Tumor homogenate activation efficiency, sarcoma tissue (Examples 28, 37); assay type: in vitro ADME; conditions: pH 5.0, 37° C., 2 h; Table 5
Experimental: as §1, §2, §3, §4

[14] = 15 mg/kg once a week for three weeks
[15] = 45 mg/kg once a week for three weeks
[16] = 15 mg/kg once a week for four weeks, Table 3
[17] = 45 mg/kg once a week for four weeks, Table 3
[18] = Table 14 (Example 43), dose 45 mg/kg, once a week for four weeks, BALB/c mice

Compound	Percentage of release efficiency (%) Ovarian cancer tissue (A2780) [1] [%]	MTD at 14 d [2] [mg/kg]	Mouse weight (%) on Day 14 ([3]; Day 14)	Mouse weight (%) on Day 14 ([4]; Day 14)	Mouse weight (%) [5, 14]	Mouse weight (%) [5, 15]	Percentage of release efficiency (%) Breast cancer tissue (SKBR3) [6] [%]	Percentage of release efficiency (%) Heart tissue [7] [%]	IC50 A2780 (ovarian cancer) (A2780 (ovarian cancer)) [µg/mL]	IC50 A549 (non-small cell lung cancer) [8] [µg/mL]	IC50 SKBR3 (breast cancer tissue) [9] [µg/mL]	IC50 SJSA-1 (sarcoma tissue) (SJSA-1 (sarcoma tissue)) [µg/mL]	Percentage of release efficiency (%) Non-small cell lung cancer tissue (A549) [10] [%]	Percentage of release efficiency (%) Small cell lung cancer tissue (NCI-H841) [11] [%]	Mouse weight (%) [12, 16]	Mouse weight (%) [12, 17]	Mouse weight (%) [12, 18]	Percentage of release efficiency (%) Sarcoma tissue (SJSA1) [13] [%]	further results
CC[C@@]1(O)C(=O)OCc2c1cc1n(c2=O)Cc2c-1nc1ccccc1c2CCN(C(=O)CNC(=O)[C@H](CC(N)=O)NC(=O)[C@H](C)NC(=O)[C@H](C)NC(=O)CCOCCOCCOCCOCCOCCOCCNC(=O)CCN1C(=O)C=CC1=O)C1CC1 [MI-6PEG-AANG-D6] ({Propanoyl(3-maleimido)-PEG6}-AANG-X3)	75.9	200	+8.5%	−0.6%	+24%	+3%	82.1	2.5	0.77 (≈ 0.625 µM)	1.55 (≈ 1.26 µM)	1.81 (≈ 1.47 µM)	0.49 (≈ 0.398 µM)	73.1	76	+27%	+17%	+17%	79.9	–
CCCN(CCc1c2c(nc3ccccc13)-c1cc3c(c(=O)n1C2)COC(=O)[C@]3(O)CC)C(=O)CNC(=O)[C@H](CC(N)=O)NC(=O)[C@H](C)NC(=O)[C@H](C)NC(=O)CCOCCOCCOCCOCCOCCOCCNC(=O)CCN1C(=O)C=CC1=O [MI-6PEG-AANG-D3] ({Propanoyl(3-maleimido)-PEG6}-AANG-X4)	76.2	350	+11.4%	+3.6%	+29%	+26%	84.6	3.6	1.80 (≈ 1.46 µM)	3.41 (≈ 2.76 µM)	2.42 (≈ 1.96 µM)	1.63 (≈ 1.32 µM)	82.6	71.2	+31%	+20%	–	88.9	A2780 (ovarian cancer) mean tumor volume (mm^3) Day 1 ([3]; Day 1): 138.55 mm^3; A2780 (ovarian cancer) mean tumor volume (mm^3) Day 4 ([3]; Day 4): 302.74 mm^3; A2780 (ovarian cancer) mean tumor volume (mm^3) Day 7 ([3]; Day 7): 742.51 mm^3; A2780 (ovarian cancer) mean tumor volume (mm^3) Day 10 ([3]; Day 10): 898.06 mm^3; A2780 (ovarian cancer) mean tumor volume (mm^3) Day 14 ([3]; Day 14): 1141.65 mm^3; Growth rate (%) of A2780 (ovarian cancer) on Day 14 ([3]; Day 14): 824.00%; SJSA-1 (sarcoma tissue) mean tumor volume (mm^3) Day 1 ([4]; Day 1): 132.12 mm^3; SJSA-1 (sarcoma tissue) mean tumor volume (mm^3) Day 4 ([4]; Day 4): 360.28 mm^3; SJSA-1 (sarcoma tissue) mean tumor volume (mm^3) Day 7 ([4]; Day 7): 610.04 mm^3; SJSA-1 (sarcoma tissue) mean tumor volume (mm^3) Day 10 ([4]; Day 10): 833.76 mm^3; SJSA-1 (sarcoma tissue) growth rate (%) on Day 14 ([4]; Day 14): 1002.12%; SJSA-1 (sarcoma tissue) mean tumor volume (mm^3) Day 14 ([4]; Day 14): 1324.00 mm^3; SJSA-1 (sarcoma tissue) mean tumor volume (mm^3) [5, 14]: 1325.4 mm^3; SJSA-1 (sarcoma) Growth rate (%) [5, 14]: 1095.4%; SJSA-1 (sarcoma tissue) mean tumor volume (mm^3) [5, 15]: 1098.2 mm^3; SJSA-1 (sarcoma) Growth rate (%) [5, 15]: 930.68%; colo320 (colorectal cancer cell) growth rate (%) [12, 16]: 985.14%; colo320 (colorectal cancer cell) mean tumor volume (mm^3) [12, 16]: 1091.1 mm^3; colo320 (colorectal cancer cell) growth rate (%) [12, 17]: 481.06%; colo320 (colorectal cancer cell) mean tumor volume (mm^3) [12, 17]: 532.8 mm^3
CC[C@@]1(O)C(=O)OCc2c1cc1n(c2=O)Cc2c-1nc1ccccc1c2CCN(C(=O)CNC(=O)[C@H](CC(N)=O)NC(=O)[C@H](C)NC(=O)[C@H](C)NC(=O)CCOCCOCCOCCOCCOCCOCCNC(=O)CCN1C(=O)C=CC1=O)C1CCC1 [MI-6PEG-AANG-D7] ({Propanoyl(3-maleimido)-PEG6}-AANG-X1)	84.5	250	+15.6%	+1.6%	+31%	+26%	78.8	2	1.21 (≈ 0.972 µM)	1.89 (≈ 1.52 µM)	2.64 (≈ 2.12 µM)	0.53 (≈ 0.426 µM)	77	66.1	+26%	+31%	+31%	64.3	–
